In the assay the target is Abi2-SH3 domain (AbI2B) (SH3 domain array) (Homo sapiens (Human), UniProt Q9NYB9-1). Description: SH3 domain array (far-western overlay).
Sequence of Abi2-SH3 domain (AbI2B) (SH3 domain array) (Q9NYB9 451-510): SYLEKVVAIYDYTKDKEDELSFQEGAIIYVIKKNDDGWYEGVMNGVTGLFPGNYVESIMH

For the molecule SLLFRRTKATAPGPEGGGTLHPNPTDKTSSIQSRPLPSPPKFT (protein) [His-tagged-p130Cas-P2 domain], the binding result was “binds”.

Values taken from PMC3629710 (2013).
